B1: Arabidopsis thaliana AtSLY1 (yeast bait fusion) [Arabidopsis thaliana] / A. thaliana GAI (yeast prey fusion) [Arabidopsis thaliana] (parent complex)
chain 1: MKRSTTDSDLAGDAHNETNKKMKSTEEEEIGFSNLDENLVYEVLKHVDAKTLAMSSCVSKIWHKTAQDERLWELICTRHWTNIGCGQNQLRSVVLALGGFRRLHSLYLWPLSKPNPRARFGKDELKLTLSLLSIRYYEKMSFTKRPLPESK
chain 2: MKRDHHHHHHQDKKTMMMNEEDDGNGMDELLAVLGYKVRSSEMADVAQKLEQLEVMMSNVQEDDLSQLATETVHYNPAELYTWLDSMLTDLNPPSSNAEYDLKAIPGDAILNQFAIDSASSSNQGGGGDTYTTNKRLKCSNGVVETTTATAESTRHVVLVDSQENGVRLVHALLACAEAVQKENLTVAEALVKQIGFLAVSQIGAMRKVATYFAEALARRIYRLSPSQSPIDHSLSDTLQMHFYETCPYLKFAHFTANQAILEAFQGKKRVHVIDFSMSQGLQWPALMQALALRPGGPPVFRLTGIGPPAPDNFDYLHEVGCKLAHLAEAIHVEFEYRGFVANTLADLDASMLELRPSEIESVAVNSVFELHKLLGRPGAIDKVLGVVNQIKPEIFTVVEQESNHNSPIFLDRFTESLHYYSTLFDSLEGVPSGQDKVMSEVYLGKQICNVVACDGPDRVERHETLSQWRNRFGSAGFAAAHIGSNAFKQASMLLALFNGGEGYRVEESDGCLMLGWHTRPLIATSAWKLSTN

Variants of: B1
Assay: yeast 2-hybrid; parent: 0.35; read off a plot

| Variant | response |
| --- | --- |
| chain 1 P114A | ~89 β-galactosidase units |
| chain 1 P114H | ~77 β-galactosidase units |

Results, then the variant that gave them:

| response | Variant |
| --- | --- |
| ~94 β-galactosidase units | chain 1 P114R |
| ~34 β-galactosidase units | chain 1 P114T |

Variants of: B1
Assay: yeast 2-hybrid; parent: 0.35; read off a plot
Remark: another data set of the same source

| response | Variant |
| --- | --- |
| ~110 β-galactosidase units | chain 1 T128A, chain 1 E138K |
| ~160 β-galactosidase units | chain 1 H104Y, chain 1 E138K |
| ~77 β-galactosidase units | chain 1 P114L, chain 1 E138K |

Variants of: B1
Assay: yeast 2-hybrid; parent: 0.38; read off a plot

| response | Variant |
| --- | --- |
| ~0.26 β-galactosidase units | chain 1 K126R |

From article PMC10724065, “Evolution of a plant growth-regulatory protein interaction specificity” (Nature Plants, 2023)
